Results: publication PMC9325769 (Nature Communications, 2022)
pKd: −log10 of the molar value.

What was measured:
[1] = target: co-expressed 6×His-tagged Lpg2369–Lpg2370 (HipTLp–HipSLp) complex (Legionella pneumophila) (UniProt Q5ZSZ7); assay: ITC
[2] = target: pHipTLp (HipTLp, Lpg2370) (Legionella pneumophila, UniProt Q5ZSZ6); assay: biochemical
[3] = target: HipTLp (Lpg2370), 6×His-tagged, expressed alone (autophosphorylated, pHipTLp) (Legionella pneumophila) (UniProt Q5ZSZ6); assay: ITC

Molecule: HipBLp (Lpg2368) (from UniProt Q5ZSZ8 1-75) (natural protein)
- pKd [1]: 5.82

Molecule: Nc1ncnc2c1ncn2[C@@H]1O[C@H](COP(=O)(O)OP(=O)(O)NP(=O)(O)O)[C@@H](O)[C@H]1O [AMP–PNP]
- pKd [2]: ~4.15

Molecule: HipSLp (Lpg2369), untagged wild type (6×His-tag cleaved with TEV protease) (from UniProt Q5ZSZ7 1-102) (natural protein)
- pKd [3]: 7.38
